Measurements taken from patent publication CN106117361A.

Biological target: CD3 on Jurkat cells (Jurkat靶标细胞) (UniProt P07766)
Assay: flow cytometry, culture supernatant on Jurkat cells (negative control; TG1 background 132.03)

Sequence of UniProt P07766 (P07766 23-207): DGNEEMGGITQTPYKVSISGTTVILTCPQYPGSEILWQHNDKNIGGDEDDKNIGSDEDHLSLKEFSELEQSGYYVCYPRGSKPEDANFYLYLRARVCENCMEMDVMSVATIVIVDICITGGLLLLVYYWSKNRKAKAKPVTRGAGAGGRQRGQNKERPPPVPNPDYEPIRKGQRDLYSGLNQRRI

## NC-sdAb(相同形式的非相关性sdAb) (VHH)
  结合MFI: 115 MFI
